Patent US6713265

Target: T1, rat Y4 receptor (rat), Q63447
T1 chain: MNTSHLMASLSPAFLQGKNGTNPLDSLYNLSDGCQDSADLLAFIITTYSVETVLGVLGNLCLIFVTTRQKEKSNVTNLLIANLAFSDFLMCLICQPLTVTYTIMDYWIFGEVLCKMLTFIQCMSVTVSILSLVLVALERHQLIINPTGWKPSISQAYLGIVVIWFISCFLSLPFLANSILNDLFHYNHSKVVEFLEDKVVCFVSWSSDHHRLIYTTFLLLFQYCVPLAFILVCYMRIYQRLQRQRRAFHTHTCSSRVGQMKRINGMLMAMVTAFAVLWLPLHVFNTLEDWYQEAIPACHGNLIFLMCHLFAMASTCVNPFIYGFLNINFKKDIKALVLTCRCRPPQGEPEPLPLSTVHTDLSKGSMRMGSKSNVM
Test: 125I-PYY displacement, COS-7 membranes
Conditions: remark: other sources report otherwise

- Ki: 140 nM
Binder: PAEDLARYYSALRHYINLITRQRY (peptide, UniProt P01304 22-45, looked up) [porcine NPY13-36, P01304 22-45]
